Laboratory results from US10696642B2, “TEAD transcription factor autopalmitoylation inhibitors” (The General Hospital Corporation, priority 2015, dated 2020).

Substrate: CCCCCCCCCCCCCCCC(=O)SCCNC(=O)CCNC(=O)[C@H](O)C(C)(C)COP(=O)(O)OP(=O)(O)OC[C@H]1O[C@@H](n2cnc3c(N)ncnc32)[C@H](O)[C@@H]1OP(=O)(O)O
Assay: TEAD2 YBD autopalmitoylation kinetics, palmitoyl-CoA dose-dependency
Format: biochemical, human
Conditions: other: recombinant TEAD2 YBD, alkyne palmitoyl-CoA, 3 min (FIG. 2J); pH 6.4
Description: Intact mass spectrometry analysis of the recombinant TEAD2-YBD was carried out. The peak corresponding to unmodified TEAD2 at 26497 Dalton. A small side peak was also observed at 26736 Dalton (FIG. 2E), consistent with a palmitate modification to the protein. […] Moreover, autopalmitoylation of TEAD2 YBD was confirmed by acyl-biotin exchange (ABE) assay, which converts S-palmitoylation to stable biotinylation for detection (FIG. 2G). With 1 μM of palmitoyl-CoA at neutral pH, TEAD2 YBD was autopalmitoylated within 2 min, and the palmitoylation levels reached saturation after 10 min (FIG. 2H). To determine dose-dependency of palmitoyl-CoA, recombinant TEAD2 YBD was incubated with various concentrations of alkyne palmitoyl-CoA for 3 min, and the reaction rate was determined by quantifying the intensities of streptavidin blots (FIG. 2I). […] The physiological palmitoyl-CoA concentrations range from 100 nM to 10 μM in cells.
Recombinant GST-TEAD2 or His6TEAD2 (500 ng) protein was incubated with the indicated concentrations of alkyne palmitoyl-CoA (Cayman Chemical) for 2 h or the indicated time in 50 mM MES, pH 6.4. […] Samples were analyzed by SDS-PAGE and streptavidin HRP. Bands intensity obtained from streptavidin blot were quantified using Image J (NIH) and the rate of palmitoylation in arbitrary unit was plotted against the concentration of palmitoyl-CoA. […]

B1: TEAD2 YBD (Homo sapiens) (protein)
chain: AWQARGLGTARLQLVEFSAFVEPPDAVDSYQRHLFVHISQHCPSPGAPPLESVDVRQIYDKFPEKKGGLRELYDRGPPHAFFLVKFWADLNWGPSGEEAGAGGSISSGGFYGVSSQYESLEHMTLTCSSKVCSFGKQVVEKVETERAQLEDGRFVYRLLRSPMCEYLVNFLHKLRQLPERYMMNSVLENFTILQVVTNRDTQELLLCTAYVFEVSTSERGAQHHIYRLVRD
notes: The cDNA encoding human TEAD2 (residues 217-447, TEAD2^217-447) was cloned into a pET29 vector; made in house; host or cells: E. coli BL21(DE3)-T1R
- Km: 0.8 µM
